According to publication PMC9016069, “Inosine triphosphate pyrophosphatase from Trypanosoma brucei cleanses cytosolic pools from deaminated nucleotides” (Scientific Reports, 2022):

What was measured:
Experiment in all cases: HPLC (MonoQ) product analysis, fit to substrate inhibition model
TbITPA = target: T1, TbITPA (Trypanosoma brucei, UniProt Q389X7); format: biochemical; settings: substrate inhibition constant; 5 mM MgCl2, 20 mM Tris-HCl pH 7.5, 0.1 mg/mL BSA, 1 mM DTT, 25 °C
T1 construct: gene Tb10.6k15.0290; homodimer 48 kDa by gel filtration
T1 sequence (Q389X7 87-287): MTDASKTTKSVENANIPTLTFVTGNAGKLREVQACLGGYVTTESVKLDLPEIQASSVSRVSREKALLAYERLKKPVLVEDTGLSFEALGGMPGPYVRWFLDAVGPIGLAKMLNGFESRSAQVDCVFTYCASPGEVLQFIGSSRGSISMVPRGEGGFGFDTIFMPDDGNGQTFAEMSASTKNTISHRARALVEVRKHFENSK
Excerpt: HPLC (MonoQ) product analysis, fit to substrate inhibition model on TbITPA

[1] = substrate: O=P(O)(O)OP(=O)(O)OP(=O)(O)OC[C@H]1O[C@@H](n2cnc3c(O)ncnc32)[C@H](O)[C@@H]1O; format: biochemical, Trypanosoma brucei; settings: 5 mM MgCl2, 20 mM Tris-HCl pH 7.5, 0.1 mg/mL BSA, 1 mM DTT, 25 °C
[2] = substrate: O=c1[nH]cnc2c1ncn2[C@H]1C[C@H](O)[C@@H](COP(=O)(O)OP(=O)(O)OP(=O)(O)O)O1; format: biochemical, Trypanosoma brucei; settings: 5 mM MgCl2, 20 mM Tris-HCl pH 7.5, 0.1 mg/mL BSA, 1 mM DTT, 25 °C
[3] = substrate: NC(=O)c1ncn([C@@H]2O[C@H](CO[P@@](=O)(O)O[P@](=O)(O)OP(=O)(O)O)[C@@H](O)[C@H]2O)n1; format: biochemical, Trypanosoma brucei; settings: 5 mM MgCl2, 20 mM Tris-HCl pH 7.5, 0.1 mg/mL BSA, 1 mM DTT, 25 °C
[4] = substrate: O=c1[nH]c(=O)c2ncn([C@@H]3O[C@H](COP(=O)(O)OP(=O)(O)OP(=O)(O)O)[C@@H](O)[C@H]3O)c2[nH]1; format: biochemical, Trypanosoma brucei; settings: 5 mM MgCl2, 20 mM Tris-HCl pH 7.5, 0.1 mg/mL BSA, 1 mM DTT, 25 °C

Molecule: O=c1[nH]cnc2c1ncn2[C@@H]1O[C@H](COP(=O)(O)OP(=O)(O)OP(=O)(O)O)[C@@H](O)[C@H]1O [ITP]
- Ki (μM)^a (TbITPA): 824 ± 275 µM

Molecule: O=c1[nH]c(=O)c2ncn([C@@H]3O[C@H](COP(=O)(O)OP(=O)(O)OP(=O)(O)O)[C@@H](O)[C@H]3O)c2[nH]1 [XTP]
- Ki (μM)^a (TbITPA): 951 ± 220 µM

Molecule: O=c1[nH]cnc2c1ncn2[C@H]1C[C@H](O)[C@@H](COP(=O)(O)OP(=O)(O)OP(=O)(O)O)O1 [dITP]
- Ki (μM)^a (TbITPA): 98 ± 42 µM

B1: TbITPA (Trypanosoma brucei brucei TREU927) (protein)
chain: MTDASKTTKSVENANIPTLTFVTGNAGKLREVQACLGGYVTTESVKLDLPEIQASSVSRVSREKALLAYERLKKPVLVEDTGLSFEALGGMPGPYVRWFLDAVGPIGLAKMLNGFESRSAQVDCVFTYCASPGEVLQFIGSSRGSISMVPRGEGGFGFDTIFMPDDGNGQTFAEMSASTKNTISHRARALVEVRKHFENSK
notes: homodimer 48 kDa by gel filtration
- Km [1]: 17 ± 3 µM
- kcat [1]: 59 ± 5 s⁻¹
- kcat/Km [1]: 3.5e+06 M⁻¹ s⁻¹
- Km [2]: 44 ± 18 µM
- kcat [2]: 280 ± 74 s⁻¹
- kcat/Km [2]: 6.4e+06 M⁻¹ s⁻¹
- Km [3]: 75 ± 24 µM
- kcat [3]: 100 ± 14 s⁻¹
- Km [4]: 27 ± 4 µM
- kcat [4]: 37 ± 2 s⁻¹
- kcat/Km [4]: 1.4e+06 M⁻¹ s⁻¹
